T1: his-tagged B7-H3 (UniProt Q5ZPR3-2 29-245, limits assumed)
T1 construct: also called CD276; not shown: His tag
T1 sequence (looked up): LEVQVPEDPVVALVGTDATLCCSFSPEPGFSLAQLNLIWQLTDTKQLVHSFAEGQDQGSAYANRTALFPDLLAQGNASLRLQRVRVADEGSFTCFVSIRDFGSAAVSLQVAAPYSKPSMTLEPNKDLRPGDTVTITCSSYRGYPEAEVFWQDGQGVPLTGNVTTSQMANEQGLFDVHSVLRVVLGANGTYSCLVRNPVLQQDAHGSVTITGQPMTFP

B1: 40511p1.1.C4 scFv-Fc (scFv, V domains shown)
VH: DVQLVESGGGVVRPGESLRLSCAASGFTFSSYAMSWVRQAPGEGLEWVSRISGSGNSTDYAESVKGRFTISRDSSKNTLYLQMNSLRAEDTAVYYCAKHSTVSFFDYWGLGTLVTVSS
VL: EIVLTQSPGTLSLSPGERATLSCRASQSISSRYLAWYQQKPGQAPRLLIYGASRRATGIPARFSGSGSGTEFTLTISSLQSEDFAVYYCQQYGHWPPLTFGGGTKVEIK
B2: 40511p1.1.A1 scFv-Fc (scFv, V domains shown)
VH: DVQLVESGGGVVRPGESLRLSCAASGFTFSNYAMNWVRQAPGEGLEWVSRINYKGYNITYYADSVKGRFTISRDNSKNTLYLQMNSLRAEDTAVYYCAKSGSNSNNFFDYWGLGTLVTVSS
VL: EIVLTQSPGTLSVSPGERATLSCRASQSVNSKLAWYQQRPGQAPRLLIYDASSRATGIPDRFSGSGSGTDFTLTISRLEPEDFAVYYCQQYKNWPPLTFGGGTKVEIK
notes: Tested as scFv-Fc supernatant
B3: 40511p1.1.H10 scFv-Fc (scFv, V domains shown)
VH: B2 VH
VL: EIVLTQSPGNLSLSPGERATLSCRASQSVGSQLGWYQQKPGQAPRLLIYGASTRATGIPDRFSGSGSGTEFALTISSLQSEDFAVYYCQQYYDWPPLTFGGGTKVEIK
B4: 40579p1.B8 scFv-Fc (scFv, V domains shown)
VH: EVQLLESGGGLVQPGGSLRLSCAASGFTFSDYYMSWVRQAPGKGLEWVSGISMSSTIYYADSVKGRFTISRDNSKNTLYLQMNSLRAEDTAVYYCARHRSPYQYRSMDVWGQGTTVTVSS
VL: B2 VL with V13L, R39K, A43P, R45S, S53R, D70E, R77S, E79Q, P80S, K92N
B5: 40511p1.1.H5 scFv-Fc (scFv, V domains shown)
VH: B2 VH
VL: EIVLTQSPGTLSLSPGERATLSCRASQSIRSDLAWYQQKPGQAPRLLIYGAASRATGIPARFSGSGSGTEFTLTISSLQSGDFAVYYCQQYNSWPPLTFGGGTKVEIK
notes: Tested as scFv-Fc supernatant
B6: 40511p1.2.A12 scFv-Fc (scFv, V domains shown)
VH: DVQLVESGGGVVRPGESLRLSCAASGFTFSSYAESWVRQAPGEGLEWVSIISGSGGNTFYADSVKGRFTISRDNSKNTLYLQMNSLRAEDTAVYYCARFAYGFFDYWGLGTLVTVSS
VL: B2 VL with S28T, N30G, R39K, A43P, R45S, S53T, R77S, E79Q, P80S, K92R
notes: Tested as scFv-Fc supernatant; also called 40511p1.2.Al2
B7: 40511p1.1.G1 scFv-Fc (scFv, V domains shown)
VH: B6 VH
VL: EIVLTQSPGTLSVSPGEGATLSCRASQTVGSKLAWYQQKPGQPPSLLIYDASTRATGIPDRFSGSGSGTDFTLTISSLQSEDFAVYYCQQYRNWPPLTFGGGTKVEIK
notes: Tested as scFv-Fc supernatant
B8: 40511p1.2.G10 scFv-Fc (scFv, V domains shown)
VH: B2 VH
VL: B3 VL with N10T, S28T, Q32K, G34A, G57D, A72T, Y92I, D93N, T98S
notes: Tested as scFv-Fc supernatant
B9: 40511p1.2.A4 scFv-Fc (scFv, V domains shown)
VH: B6 VH
VL: B7 VL with G18R, P43A, S45R, G57D
notes: Tested as scFv-Fc supernatant
B10: 40579p1.C2 scFv-Fc (scFv, V domains shown)
VH: EVQLLESGGDLVQPGGSLRLSCAASGFNFSSYWMSWVRQAPGKGLEWVSGISISYGGNAYYADSVKGRFTVSRDNSKNTLYLQMNSLRAEDTAVYYCGRDRSPYQYRSMDVWGQGTTVTVSS
VL: EIVLTQSPATLSVSPGERATFSCRASQTIGNKLAWYQQKPGQAPRLLIFSASTRATDIPDRFSGSGSGTDFTLTISSLQSEDFAVYYCQQYNNWPPLTFGGGTKVEIK
notes: Tested as scFv-Fc supernatant
B11: 40579p1.D8 scFv-Fc (scFv, V domains shown)
VH: B10 VH with D10G, N28T, S31D, W33Y, G50S, N58T, A59T, V71I, G98A, Y106C
VL: B5 VL with G50N, A51T, A52V, S53T, I58V, A60D, G81E
notes: Tested as scFv-Fc supernatant
B12: 40579p1.F7 scFv-Fc (scFv, V domains shown)
VH: B10 VH with D10G, N28T, S31D, W33Y
VL: EIVLTQSPGTLSLSPGERATLTCRASQSVGDFLAWYQQKPGQAPRLLIYGASTRAAGIPARFRGSGSGTDFTLTISSLQSEDFAVYYCQQYKNWPPLTFGGGTKVEIK
notes: Tested as scFv-Fc supernatant
B13: 40511p1.1.C3 scFv-Fc (scFv, V domains shown)
VH: DVQLVESGGGVVRPGGSLRLSCAASGFTFRIYGMTWVRQAPGEGLEWVSTISGSGNSTYYADSVKGRFTISRDNSKNTLYLQMNSLRAEDTAVYYCAKTWNNYRFFDYWGLGTLVTVSS
VL: EIVLTQSPGTLSLSPGERATLSCRASQPINSSYLAWYQQKPGQAPRLLIYAASSRATDIPDRFSGSGSGTDFTLTISSLQSEDFAVYYCQQYYDWPQFTFGGGTKVEIK
B14: 40511p1.1.D8 scFv-Fc (scFv, V domains shown)
VH: DVQLVESGGGVVRPGESLRLSCAASGFTFSSYAMSWVRQAPGEGLEWVSSISGSGGSTLYADSVKGRFTISRDSSNNSLYLQMNSLRAEDTAVYYCAKARNNFFDYWGLGTLVTVSS
VL: EIVLTQSPGTLTLSPGERATLSCRASRSILTSLAWYQQRPGQAPRLLIYGANSRATGIPDRFSGSGSGTEFTLTISSLQSEDFAVYYCQQYYDWLTITFGGGTKVEIK
B15: 40511p1.2.B5 scFv-Fc (scFv, V domains shown)
VH: B14 VH
VL: B14 VL with A43T
B16: 40511p1.1.D3 scFv-Fc (scFv, V domains shown)
VH: DVQLVESGGGVVRPGGSLRLSCAASGFTFRSYGMNWVRQAPGEGLEWVSRMSSGGGAYYADSVKGRFTISRDNSKNTLYLQMNSLRAEDTAVYYCARNSRDFFFDQWGLGTLVTVSS
VL: B5 VL with I2T, I29V, R30N, D32K, A52S, S80T, G81E, N92S, S93D
B17: 40579p1.E5 scFv-Fc (scFv, V domains shown)
VH: EVQLLESGGGLVQPGGSLRLSCAASGFTFSDDWMTWVRQAPGKGLEWVSAINWNGNSTHYADSVKGRFTVSRDNSKNTLYLQMNSLRAEDTAVYYCAKSRTTYYSSMDVWGQGTTVTVSS
VL: EIVLTQSPGTLSLSPGERATLSCRASQTVGSYLAWYQQKPGQAPRLLIYGASSRATGIPARFSGSGSGTDFTLTISSLQSEDFAVYYCQHYYDWPPYSFGGGTKVEIK
B18: 40579p1.G1 scFv-Fc (scFv, V domains shown)
VH: B10 VH with D10G
VL: B5 VL with A52S, G81E, S93N
notes: Tested as scFv-Fc supernatant
B19: 40511p1.1.D6 scFv-Fc (scFv, V domains shown)
VH: DVQLVESGGGVVRPGESLTLSCAASGFTINSYAVSWVRQAPGEGLEWVSGISGSGVRYYADSVKGRFTISRDNSNNTLYLQMNSLRAEDTAVYYCARSNKVTWNNFFDYWGLGTLVTVSS
VL: EVVLTQSPGTLTLSPGERATLSCRASRSILTSLAWYQQKPGQAPRLLIYNTVTRATGIPARFSGSGSGTEFTLTINSLQSEDFAVYYCQQYYDWPPLTFGGGTKVEIK
notes: Tested as scFv-Fc supernatant
B20: 40511p1.1.G3 scFv-Fc (scFv, V domains shown)
VH: B19 VH with N73D
VL: B19 VL
notes: Tested as scFv-Fc supernatant
B21: 40511p1.2.A8 scFv-Fc (scFv, V domains shown)
VH: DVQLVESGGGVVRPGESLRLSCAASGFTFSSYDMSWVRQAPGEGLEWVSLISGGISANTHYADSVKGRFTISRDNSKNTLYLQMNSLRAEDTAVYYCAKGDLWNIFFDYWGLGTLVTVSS
VL: EIVLTQSPATLSVSPGERATFSCRASQNVRSYLAWYQQKPGQAPRLLIFNTVTRATGIPDRFSGSGSGTDFTLTISSLEPEDFAVYYCQQYYDWPPLTFGGGTKVEIK

Positions count from the first letter of the chain named.

The target in this assay is T1, his-tagged B7-H3. Nature of the assay: SPR, Carterra LSA; binder captured by anti-human Fc, his-tagged B7-H3 injected. Here is the method: Binding affinities of anti-B7-H3 antibodies to B7-H3 were measured by Surface Plasmon Resonance (SPR) on a Carterra LSA instrument. Goat anti-human Fc antibody was amine coupled to a HC30M chip. ScFv-Fc supernatants were diluted 30-fold with HBSTE and were captured by the anti-human Fc coupled HC30M chip. A 1:2 dilution series of his-tagged B7-H3, starting at 400 nM, was injected onto the chip for binding. Data was analyzed using the Carterra TM Kinetics software.
B1 had a Kd of 17.1 nM and a kon of 76900 M⁻¹ s⁻¹.
Molecule B2 gave a dissociation constant Kd of 463 nM, a koff of 0.04 s⁻¹ and an association rate constant (kon) of 93000 M⁻¹ s⁻¹.
With B3, the Kd was 1.41 nM and the kon came to 752000 M⁻¹ s⁻¹.
B4 returned a Kd of 3.1 nM and an on-rate (kon) of 622000 M⁻¹ s⁻¹.
In the same order, the values of B5 are 123 nM and 10300 M⁻¹ s⁻¹.
Molecule B6 yielded a Kd of 25.1 nM, a koff of 0.03 s⁻¹ and a kon of 1.32e+06 M⁻¹ s⁻¹.
In the same order, the values of B7 are 54.4 nM, 0.02 s⁻¹ and 458000 M⁻¹ s⁻¹.
In the same order, the values of B8 are 15 nM, 0.01 s⁻¹ and 645000 M⁻¹ s⁻¹.
For B9, in that order: 52 nM, 0.04 s⁻¹ and 768000 M⁻¹ s⁻¹.
On to B10, for which binding was put at a Kd of 9.11 nM and the kon was 452000 M⁻¹ s⁻¹.
As for B11, the affinity, expressed as Kd, was 44.2 nM and the kon was 25700 M⁻¹ s⁻¹.
With B12, the dissociation constant Kd was 212 nM, the koff came out at 0.02 s⁻¹ and the kon amounted to 108000 M⁻¹ s⁻¹.
In the same order, the values of B13 are 47.7 nM, 0.02 s⁻¹ and 406000 M⁻¹ s⁻¹.
In the same order, the values of B14 are 71.8 nM, 0.02 s⁻¹ and 340000 M⁻¹ s⁻¹.
For B15, in that order: 61.2 nM, 0.05 s⁻¹ and 795000 M⁻¹ s⁻¹.
B16: binding was put at a Kd of 321 nM, the koff is 0.04 s⁻¹ and the kon was 109000 M⁻¹ s⁻¹.
B17 returned a Kd of 2.51 nM and a kon of 493000 M⁻¹ s⁻¹.
For B18, in that order: 6.75 nM and 260000 M⁻¹ s⁻¹.
For B19, in that order: 0.325 nM and 669000 M⁻¹ s⁻¹.
In the same order, the values of B20 are 0.759 nM and 494000 M⁻¹ s⁻¹.
B21 displayed a Kd of 0.639 nM and a kon of 364000 M⁻¹ s⁻¹.

These data come from US20260008852A1 (CRYSTAL BIOSCIENCE, published 2026).
